Drawing on publication PMC10574248, this text covers Kd for twelve sequences.

This data set has as its system RBP7910 (Trypanosoma brucei). Put plainly: MST. Conditions: RBB50: 20 mM HEPES pH 7.6, 150 mM KCl, 5 mM MgCl2, 100 ug/mL BSA, 10% glycerol, 50 nM oligo, room temperature 30-60 min, errors are 68% confidence.
By Kd is commonly meant the concentration at which binding is half-saturated. Low values mean higher affinity, high ones lower affinity. As for “GGTGGGTTATCGCGCGCGCGCGATCAACTGGG (double strand) [d(GC)6 ds]”, the Kd amounted to 444 nM.
“GGUGGGUUAUUAUAUAUAUAUAAUCAACUGGG / CCCAGUUGAUUAUAUAUAUAUAAUAACCCACC [r(UA)6 ds]” registered a Kd of 1340 nM.
As to “GGUGGGUUAUUUUUUUUUUUUUAUCAACUGGG [r(UUUU)3 ss]”, the Kd was 147 nM.
The value for “GGUGGGUUAUCGCGCGCGCGCGAUCAACUGGG [r(GC)6 ss]” was 2030 nM; that for “GGUGGGUUAUUUUUUUUUUUUUAUCAACUGGG / CCCAGUUGAUAAAAAAAAAAAAAUAACCCACC [r(UUUU)3 ds]” was 1710 nM.
Turning to “GGUGGGUUAUCGCGCGCGCGCGAUCAACUGGG / CCCAGUUGAUCGCGCGCGCGCGAUAACCCACC [r(GC)6 ds]”, the Kd worked out at 3220 nM.
Turning to “GGUGGGUUAUUAUAUAUAUAUAAUCAACUGGG [r(UA)6 ss]”, the Kd was found to be 880 nM.
“GGTGGGTTATCGCGCGCGCGCGATCAACTGGG [d(GC)6 ss]”: the Kd is 22 nM.
Consider “GGUGGGUUAUAUUUAUUUAUUUAUUUAUCAACUGGG [r(AUUU)4 ss]”, for which the Kd is 180 nM.
Sequence “GGUGGGUUAUAUUCAUUCAUUCAUCAACUGGG / CCCAGUUGAUGAAUGAAUGAAUAUAACCCACC [r(AUUC)3 ds]” returned a Kd of 1230 nM.
Take “GGUGGGUUAUAUUCAUUCAUUCAUCAACUGGG [r(AUUC)3 ss]”: the Kd came out at 272 nM.
As to “GGUGGGUUAUAUUUAUUUAUUUAUUUAUCAACUGGG / CCCAGUUGAUAAAUAAAUAAAUAAAUAUAACCCACC [r(AUUU)4 ds]”, the Kd was 1880 nM.
